From US20180002437A1 (ABRUZZO THERANOSTIC S R L, published 2018)

Assays:
[1] = molecular target: T1, human Trop-2 on the cell surface (native, endogenous or transfected) (human, UniProt P09758 27-323); experiment: flow cytometry competition on Colo205 cells (FIG. 31 and FIG. 37)
T1 construct: On Colo205, HT29 and MCF7 cells (endogenous) and on KM12SM and murine MTE 4-14 cells transfected with Trop-2; For the transfectants the species of the Trop-2 is not repeated in the sentence; also called TACSTD-2; native Trop-2
T1 sequence: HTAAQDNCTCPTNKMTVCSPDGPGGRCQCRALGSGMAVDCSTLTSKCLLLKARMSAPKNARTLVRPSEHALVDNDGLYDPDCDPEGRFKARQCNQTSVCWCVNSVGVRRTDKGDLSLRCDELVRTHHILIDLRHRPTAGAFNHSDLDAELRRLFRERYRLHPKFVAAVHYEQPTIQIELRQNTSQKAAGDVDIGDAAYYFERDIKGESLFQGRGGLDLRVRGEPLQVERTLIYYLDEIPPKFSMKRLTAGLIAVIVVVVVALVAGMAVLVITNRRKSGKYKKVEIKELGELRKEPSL
Experimental: FIG. 37: Relative affinity of the 2EF and Hu2EF-7 antibodies for native Trop-2—Flow citometry analysis. Human colon cancer COLO205 cells, which are positive for Trop-2, were incubated with FITC-labelled 2EF antibody pre-mixed with increasing concentrations of unlabelled Hu2EF-7 purified from CHO-K1 or YB2/0 cells.
(§1) The relative affinity of Hu2EF-4 e Hu2EF-5 for the native Trop-2 antigen was also analysed by means of […] competitive binding measured by flow cytometry on live tumor cells that express surface Trop-2. […] After 20 min at 4° C. cells were washed with 5 ml of SM and resuspended in 500 μl di SM with 0.5 μg/ml propidioiodide to discriminate dead cells). Fluorescence was then analysed by flow cytometry (FACScalibur, FACScan, Becton Dickinson, Sunnyvale, Calif.) as previously described (Alberti, Nutini et al. 1994) (FIG. 31). […] Simila results were obtained for the Hu2EF-4 antibody.

[2] = molecular target: T1, human Trop-2 on the cell surface …; experiment: cell-based or functional assay
[3] = molecular target: T1, human Trop-2 on the cell surface …; experiment: flow cytometry competition on Colo205 cells, competitor of 2EF-488 at 9x and 27x
Experimental: as §1

[4] = molecular target: T1, human Trop-2 on the cell surface …; experiment: flow cytometry competition on Colo205 cells, competitor of 2EF-488
Experimental: as §1

[5] = molecular target: T1, human Trop-2 on the cell surface …; experiment: flow cytometry competition with 2G10-488 on MTE 4-14/Trop-2 and MCF7 cells (sentence also sums up the competitive ELISA)
From the text: The binding to Trop-2 of the purified Ch2G10, Hu2G10-5 and Hu2G10-6 antibodies was also characterized by flow cytometry using alive cells that express native surface Trop-2 (either ndogenous or transfected). […] The cells were then washed and analyzed by flow cytometry as described.

[6] = molecular target: T1, human Trop-2 on the cell surface …; experiment: flow cytometry, MCF-7 cells, goat anti-human Alexa-488
Experimental: FIG. 38: Specific recognition of Trop-2 by the humanized monoclonal antibodies according to the present invention - analysis by flow cytometry. (A) human metastatic colon cancer KM12SM cells transfected with a vector expressing Trop-2 (left panel) or with the empty vector (right panel) were incubated with the ‘humanized anti-Trop-2 monoclonal antibody Hu2EF-7. […] Unstained negative controls (thin line) are shown for comparison. (B) Human colon cancer HT29 cells (left panel) or breast cancer MCF-7 cells (right panel) expressing Trop-2 were incubated with the humanized Hu-2EF-7 and Hu-2G10-6anti-Trop-2monoclonal antibodies respectively.

B1: mouse 2EF antibody (hybridoma PD 08021) (antibody, V domains shown)
VH: QVQLQQSGAELVRPGTSVKMSCKAAGYTFTNYWIGWVKQRPGHGLEWIGDIYPGGGYTNYNEKFKGKATLTADTSSSTAYMQLSSLTSEDSAIYYCARGTGGGDYWGQGTLVTVSA
VL: DIVLTQSPASLAVSLGQRATISCRASQSVSTSSYSYMHWYQQKPGQPPKLLIKYASNLESGVPARFSGSGSGTDFTLNIHPVEEEDTATYYCQHSWEIPYTFGGGTKLEIK
notes: Mouse monoclonal purified from the hybridoma; also called murine 2EF
- binding result [1]: binds

B2: humanized Hu2EF-7 antibody (Hu2EF VH7 and VL2, IgG1/kappa) (antibody, V domains shown)
VH: QVQLVQSGAEVKKPGASVKVSCKASGYTFTNYWIGWVKQAPGQGLEWIGDIYPGGGYTNYNEKFKGRATLTADTSASTAYMELSSLRSEDTAVYYCARGTGGGDYWGQGTLVTVSS
VL: DIVLTQSPDSLAVSLGERATINCRASQSVSTSSYSYMHWYQQKPGQPPKLLIKYASNLESGVPDRFSGSGSGTDFTLTISSLQAEDVAVYYCQHSWEIPYTFGGGTKLEIKR
- EC50 of ADCC reporter bioassay (luciferase luminescence; Jurkat effector cells with V158 FcgammaRIIIa and NFAT-luciferase; MCF7 target cells) [2]: 0.052 µg/mL

B3: humanized Hu2EF-5 antibody (VH5-Hu2EF and VL1-Hu2EF, IgG1/kappa) (antibody, V domains shown)
VH: QVQLVQSGAEVKKPGASVKVSCKASGYTFTNYWIGWVRQAPGQGLEWIGDIYPGGGYTNYNEKFKGRATLTADTSTSTAYMELSSLRSEDTAVYYCARGTGGGDYWGQGTLVTVSS
VL: DIVMTQSPDSLAVSLGERATINCRASQSVSTSSYSYMHWYQQKPGQPPKLLIKYASNLESGVPDRFSGSGSGTDFTLTISSLQAEDVAVYYCQHSWEIPYTFGQGTKLEIK
notes: human IgG1/kappa constant regions
- binding result [3]: binds

B4: humanized Hu2EF-4 antibody (VH4-Hu2EF and VL1-Hu2EF, IgG1/kappa) (antibody, V domains shown)
VH: QVQLVQSGAEVKKPGASVKVSCKASGYTFTNYWIGWVRQAPGQGLEWIGDIYPGGGYTNYNEKFKGRATLTADTSASTAYMELSSLRSEDTAVYYCARGTGGGDYWGQGTLVTVSS
VL: DIVMTQSPDSLAVSLGERATINCRASQSVSTSSYSYMHWYQQKPGQPPKLLIKYASNLESGVPDRFSGSGSGTDFTLTISSLQAEDVAVYYCQHSWEIPYTFGQGTKLEIK
notes: as for B3
- binding result [4]: binds

B5: chimeric 2G10 IgG1/kappa antibody (Ch2G10) (antibody, V domains shown)
VH: QGQMQQSGAELVKPGASVKLSCKTSGFTFSSSYISWLKQKPRQSLEWIAWIYAGTGGTSYNQKFTGKAQLTVDTSSSTAYMQLSSLTSEDSAIYYCARHNPRYYAMDYWGQGTSVTVSS
VL: ETTVTQSPASLSMAIGEKVTIRCITSTDIDDDMNWYQQKPGEPPKLLISEGNTLRPGVPSRFSSSGYGTDFVFTIENMLSEDVADYYCLQSDNLPYTFGGGTKLEIKR
notes: also called Ch2G10-IgG1/k
- binding result [5]: binds

B6: mouse 2G10 antibody (hybridoma PD 08020) (antibody, V domains shown)
VH: QGQMQQSGAELVKPGASVKLSCKTSGFTFSSSYISWLKQKPRQSLEWIAWIYAGTGGTSYNQKFTGKAQLTVDTSSSTAYMQLSSLTSEDSAIYYCARHNPRYYAMDYWGQGTSVTVSS
VL: ETTVTQSPASLSMAIGEKVTIRCITSTDIDDDMNWYQQKPGEPPKLLISEGNTLRPGVPSRFSSSGYGTDFVFTIENMLSEDVADYYCLQSDNLPYTFGGGTKLEIK
notes: Mouse monoclonal from the hybridoma; also called murine 2G10
- binding result [5]: binds

B7: humanized Hu2G10-6 antibody (Hu2G10 VH2 and VL3, IgG1/kappa) (antibody, V domains shown)
VH: QVQLVQSGAEVKKPGASVKVSCKASGFTFSSSYISWLRQAPGQRLEWIAWIYAGTGGTSYNQKFTGRVTLTVDTSASTAYMELSSLRSEDTAVYYCARHNPRYYAMDYWGQGTTVTVSS
VL: DTQMTQSPSSLSASVGDRVTITCITSTDIDDDMNWYQQKPGKAPKLLISEGNTLRPGVPSRFSGSGYGTDFTFTISSLQPEDIATYYCLQSDNLPYTFGGGTKVEIKR
- binding result [6]: binds

B8: humanized Hu2G10-5 antibody (Hu2G10 VH1 and VL3, IgG1/kappa) (antibody, V domains shown)
VH: QVQLVQSGAEVKKPGASVKVSCKASGFTFSSSYISWLRQAPGQRLEWIAWIYAGTGGTSYNQKFTGKATLTVDTSASTAYMELSSLRSEDTAVYYCARHNPRYYAMDYWGQGTTVTVSS
VL: DTQMTQSPSSLSASVGDRVTITCITSTDIDDDMNWYQQKPGKAPKLLISEGNTLRPGVPSRFSGSGYGTDFTFTISSLQPEDIATYYCLQSDNLPYTFGGGTKVEIKR
- EC50 of ADCC reporter bioassay (luciferase luminescence; Jurkat effector cells with V158 FcgammaRIIIa and NFAT-luciferase; MCF7 target cells) [2]: 4.15 µg/mL
